# From patent publication US20120278951A1 (AGRESEARCH, published 2012)
# Tests used:
# [1] = target: the molecule itself; assay: self-association (dimer) seen by SDS-PAGE/immunoblot; almost completely disrupted by SDS plus urea
# [2] = target: the molecule itself; assay: self-association seen by SDS and SDS-UREA PAGE/immunoblot; on artificial oil bodies with GSSG also trimeric, tetrameric and likely pentameric disulfide cross-linked oligomers
# [3] = target: the molecule itself; assay: disulfide cross-linked oligomers seen by non-reducing SDS-PAGE/immunoblot of artificial oil bodies
# [4] = target: the molecule itself; assay: self-association / disulfide cross-linking seen by SDS and SDS-UREA PAGE/immunoblot of inclusion bodies and artificial oil bodies
protein,measurement,setting,value
"Oleosin disulfide 0,0 (sesame seed oleosin without engineered cysteines), E. coli expressed from pET29b (other, Purified from E. coli inclusion bodies; also called Ole-0-0; Oleosin-0-0) MKETAAAKFERQHMDSPDLGTLVPRGSMAEHYGQQQQTRAPHLQLQPRAQRVVKAATAVTAGGSLLVLSGLTLAGTVIALTIATPLLVIFSPVLVPAVITIFLLGAGFLASGGFGVAALSVLSWIYRYLTGKHPPGADQLESAKTKLASKAREMKDRAEQFSQQPVPWLISDPNSSSVDKLAAALEHHHHHHH",binding result,[1],binds
"Oleosin disulfide 1,1 (sesame seed oleosin with one engineered cysteine in each hydrophilic arm), E. coli expressed from pET29b (other, also called Ole-1-1; Oleosin-1-1) MKETAAAKFERQHMDSPDLGTLVPRGSMACHYGQQQQTRAPHLQLQPRAQRVVKAATAVTAGGSLLVLSGLTLAGTVIALTIATPLLVIFSPVLVPAVITIFLLGAGFLASGGFGVAALSVLSWIYRYLTGKHPPGADQLESAKTKLASKAREMKDRAEQFSCQPVPWLEHHHHHH",binding result,[2],binds
"Oleosin disulfide 1,3 (sesame seed oleosin with one N-terminal and three C-terminal engineered cysteines), E. coli expressed from pET29b (other, also called Ole-1-3; Oleosin-1-3) MKETAAAKFERQHMDSPDLGTLVPRGSMACHYGQQQQTRAPHLQLQPRAQRVVKAATAVTAGGSLLVLSGLTLAGTVIALTIATPLLVIFSPVLVPAVITIFLLGAGFLASGGFGVAALSVLSWIYRYLTGKHPPGADCLESAKTKLASCAREMKDRAEQFSCQPVPWLEHHHHHH",binding result,[3],binds
"Oleosin disulfide 3,1 (sesame seed oleosin with three N-terminal and one C-terminal engineered cysteines), E. coli expressed from pET29b (other, also called Ole-3-1; Oleosin-3-1) MKETAAAKFERQHMDSPDLGTLVPRGSMACHYGQQQQTCAPHLQLQPRACRVVKAATAVTAGGSLLVLSGLTLAGTVIALTIATPLLVIFSPVLVPAVITIFLLGAGFLASGGFGVAALSVLSWIYRYLTGKHPPGADQLESAKTKLASKAREMKDRAEQFSCQPVPWLEHHHHHH",binding result,[3],binds
"Oleosin disulfide 3,3 (sesame seed oleosin with three engineered cysteines in each hydrophilic arm), E. coli expressed from pET29b (other, also called Ole-3-3; Oleosin-3-3) MKETAAAKFERQHMDSPDLGTLVPRGSMACHYGQQQQTCAPHLQLQPRACRVVKAATAVTAGGSLLVLSGLTLAGTVIALTIATPLLVIFSPVLVPAVITIFLLGAGFLASGGFGVAALSVLSWIYRYLTGKHPPGADCLESAKTKLASCAREMKDRAEQFSCQPVPWLEHHHHHH",binding result,[4],binds
